Measured values as given in paper PMC6944378, “Ecotin, a microbial inhibitor of serine proteases, blocks multiple complement dependent and independent microbicidal activities of human serum” (PLoS Pathogens, 2019).

T1: MASP-1 catalytic fragment (CCP1-CCP2-SP) (UniProt P48740 299-699)
T1 construct: MASP-1, active catalytic fragment containing the CCP1-CCP2-SP domains
T1 sequence: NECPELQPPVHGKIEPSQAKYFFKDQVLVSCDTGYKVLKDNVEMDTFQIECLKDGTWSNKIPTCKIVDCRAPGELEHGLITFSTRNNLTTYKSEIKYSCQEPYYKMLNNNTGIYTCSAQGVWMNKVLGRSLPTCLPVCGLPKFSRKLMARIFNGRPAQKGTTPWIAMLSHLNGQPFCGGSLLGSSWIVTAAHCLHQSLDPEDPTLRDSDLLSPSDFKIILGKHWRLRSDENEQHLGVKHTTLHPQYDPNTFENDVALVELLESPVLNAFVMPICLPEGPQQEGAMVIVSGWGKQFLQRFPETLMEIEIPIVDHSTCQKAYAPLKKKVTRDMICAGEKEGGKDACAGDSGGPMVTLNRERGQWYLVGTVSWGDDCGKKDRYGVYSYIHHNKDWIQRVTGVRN

T2: MASP-3 catalytic fragment (CCP1-CCP2-SP) (UniProt P48740-2 299-728)
T2 sequence: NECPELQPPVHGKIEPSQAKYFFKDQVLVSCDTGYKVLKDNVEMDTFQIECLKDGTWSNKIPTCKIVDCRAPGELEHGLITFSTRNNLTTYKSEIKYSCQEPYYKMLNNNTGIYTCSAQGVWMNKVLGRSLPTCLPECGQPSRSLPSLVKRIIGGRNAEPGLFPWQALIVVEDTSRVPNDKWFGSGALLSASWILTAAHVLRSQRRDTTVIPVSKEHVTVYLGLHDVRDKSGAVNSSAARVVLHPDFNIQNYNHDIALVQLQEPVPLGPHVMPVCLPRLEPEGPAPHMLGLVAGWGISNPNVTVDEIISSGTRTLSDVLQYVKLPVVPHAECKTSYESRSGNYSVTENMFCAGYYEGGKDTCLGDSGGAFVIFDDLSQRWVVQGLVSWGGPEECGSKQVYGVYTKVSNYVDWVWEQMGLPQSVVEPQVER

T3: C1s catalytic fragment (CCP1-CCP2-SP) (UniProt P09871 292-688)
T3 construct: C1s, active catalytic fragment containing the CCP1-CCP2-SP domains
T3 sequence: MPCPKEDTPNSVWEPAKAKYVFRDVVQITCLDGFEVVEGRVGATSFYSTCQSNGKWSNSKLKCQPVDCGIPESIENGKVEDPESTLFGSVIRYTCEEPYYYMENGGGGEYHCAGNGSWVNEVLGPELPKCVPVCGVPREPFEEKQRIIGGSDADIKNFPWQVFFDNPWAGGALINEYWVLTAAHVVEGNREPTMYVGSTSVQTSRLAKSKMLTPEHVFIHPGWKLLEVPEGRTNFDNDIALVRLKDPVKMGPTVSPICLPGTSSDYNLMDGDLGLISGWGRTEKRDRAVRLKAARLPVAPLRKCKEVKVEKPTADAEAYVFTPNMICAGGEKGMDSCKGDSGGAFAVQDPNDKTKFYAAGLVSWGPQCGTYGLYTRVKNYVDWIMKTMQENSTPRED

B1: P. aeruginosa ecotin (natural protein)
chain: not shown
notes: also called Pseudomonas aeruginosa ecotin ortholog
B2: L. major ecotin (ISP2) (natural protein)
chain: MPAGMSDAAGKTLADFKAPYPEPTSQQRRYVIFLDPKGDSKELNDYKVELIPGRVEKVDGTNVYRMGGNIEERTIDGWGYPYYIVTLTTMSGTLMMPLGDAALKRPRFVAMNTKNLYRYNSRLPIVVYMPKDGELRYRIWTVKSTGSGTAKSTKAREM
notes: His6-tag cleaved off with TEV protease; also called Leishmania major ISP2 ortholog; not shown: His6, N-terminal, cleaved
B3: E. coli ecotin (natural protein)
chain: not shown
notes: also called recombinant E. coli ecotin
B4: Y. pestis ecotin (natural protein)
chain: DTPTPLNQQQPLEKIAPYPQAEKGMSRQVIFLEPQKDESRFKVELLIGKTLNVDCNRHMLGGNLETRTLSGWGFDYLVMDKISQPASTMMACPEDSKPQVKFVTANLGDAAMQRYNSRLPIVVYVPQGVEVKYRIWEAGEDIRSAQVK
notes: also called Yersinia pestis ecotin ortholog

Columns and labels:
[1] = target: T4, MASP-2 catalytic fragment (CCP1-CCP2-SP) (UniProt O00187 298-686); experiment: cell-based or functional assay
[2] = target: T4, MASP-2 catalytic fragment (CCP1-CCP2-SP); experiment: equilibrium enzyme inhibition titration (residual activity; Green and Work); fixed protease incubated with increasing inhibitor to equilibrium; free enzyme read with 250 μM Z-L-Lys-SBzl + 500 μM DTNB; 20 mM HEPES, 145 mM NaCl, 5 mM CaCl2, 0.05% Triton X-100, pH 7.5; apparent KI corrected with KM where marked [a]; details: both partners purified
[3] = target: T1, MASP-1 catalytic fragment (CCP1-CCP2-SP); experiment: as above; details: both partners purified
[4] = target: T2, MASP-3 catalytic fragment (CCP1-CCP2-SP); experiment: as above; details: both partners purified
[5] = target: T2, MASP-3 catalytic fragment (CCP1-CCP2-SP); experiment: cell-based or functional assay
[6] = target: T2, MASP-3 catalytic fragment (CCP1-CCP2-SP); experiment: equilibrium enzyme inhibition titration (residual activity; Green and Work); tight-binding format: fixed MASP-3 incubated with increasing ecotin to equilibrium; 250 μM Z-L-Lys-SBzl + 40 μM Thiol Fluorescent Probe IV; 20 mM HEPES, 145 mM NaCl, 5 mM CaCl2, 0.05% Triton X-100, pH 7.5; details: both partners purified
[7] = target: T3, C1s catalytic fragment (CCP1-CCP2-SP); experiment: equilibrium enzyme inhibition titration (residual activity; Green and Work); fixed protease incubated with increasing ecotin to equilibrium; 250 μM Z-Gly-Arg-SBzl + 500 μM DTNB; 20 mM HEPES, 145 mM NaCl, 5 mM CaCl2, 0.05% Triton X-100, pH 7.5; apparent KI corrected with a KM from the literature; details: both partners purified
[8] = target: T5, factor D (human, UniProt P00746 26-253); experiment: equilibrium enzyme inhibition titration (residual activity; Green and Work); fixed protease incubated with increasing inhibitor to equilibrium; free enzyme read with 250 μM Z-L-Lys-SBzl + 500 μM DTNB; 20 mM HEPES, 145 mM NaCl, 5 mM CaCl2, 0.05% Triton X-100, pH 7.5; apparent KI corrected with KM where marked [a]; details: both partners purified
T5 construct: the KI was measured on recombinant FD; that the recombinant FD was made from it is surmised; also called FD; recombinant FD

[9] = target: T4, MASP-2 catalytic fragment (CCP1-CCP2-SP); experiment: […]; 20 mM HEPES, 145 mM NaCl, 5 mM CaCl2, 0.05% Triton X-100, pH 7.5; […]; details: both partners purified
[10] = target: T1, MASP-1 catalytic fragment (CCP1-CCP2-SP); experiment: as above; details: both partners purified
[11] = target: T2, MASP-3 catalytic fragment (CCP1-CCP2-SP); experiment: as above; details: both partners purified

T4 sequence (O00187 298-686): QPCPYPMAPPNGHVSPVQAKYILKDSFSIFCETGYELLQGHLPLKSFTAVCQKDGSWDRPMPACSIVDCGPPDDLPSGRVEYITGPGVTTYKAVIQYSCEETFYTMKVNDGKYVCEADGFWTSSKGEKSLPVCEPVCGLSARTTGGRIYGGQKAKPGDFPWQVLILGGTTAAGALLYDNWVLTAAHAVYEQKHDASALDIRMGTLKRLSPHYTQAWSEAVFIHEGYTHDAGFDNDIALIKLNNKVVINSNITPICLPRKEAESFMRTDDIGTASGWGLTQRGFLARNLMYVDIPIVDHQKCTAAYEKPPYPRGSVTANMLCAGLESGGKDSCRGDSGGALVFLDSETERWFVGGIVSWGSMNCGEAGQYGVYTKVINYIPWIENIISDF
T5 sequence (P00746 26-253): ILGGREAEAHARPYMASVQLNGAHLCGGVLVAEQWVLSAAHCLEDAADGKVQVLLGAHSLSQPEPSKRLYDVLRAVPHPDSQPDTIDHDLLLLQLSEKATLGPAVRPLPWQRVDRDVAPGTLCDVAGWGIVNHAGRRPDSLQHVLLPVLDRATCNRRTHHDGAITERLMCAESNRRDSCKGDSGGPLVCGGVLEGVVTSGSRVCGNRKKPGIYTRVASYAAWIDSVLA

Binder	IC50 of mannan-triggered LP-driven C3-deposition ELISA in 2% NHS (the most efficient LP inhibitor of the four orthologs) [1] [nM]	Ki [2] [nM]	Ki [3] [nM]	Ki [4] [nM]	half-life of Cy3-labelled pro-FD in NHS at 37 °C with 1 μM ecotin pre-incubated 10 min with the serum (3 hours without inhibitor) [5] [h]	Ki [6] [nM]	Ki [7] [nM]	Ki [8] [nM]	Ki [9] [nM]	Ki [10] [nM]	Ki [11] [nM]
B1	84 to 190	76	34	9.6	–	–	–	–	–	–	–
B2	–	8.8	2700	4.1	–	–	–	–	–	–	–
B3	–	11	4200	–	10	0.52	25200 ± 4450	4060	–	–	–
B4	–	–	–	–	–	–	–	–	2.2	35000	800
